Reference: patent publication US20110212843

Tests used:
[1] = biological target: NF-kB p50 homodimer (UniProt P19838); details: also captured on SELDI array; lost on more stringent wash
[2] = biological target: NF-kB p65 (Rel A) homodimer (UniProt Q04206); details: 1:1 stoichiometry
NF-kB p65 (Rel A) homodimer, sequence (Q04206 whole entry): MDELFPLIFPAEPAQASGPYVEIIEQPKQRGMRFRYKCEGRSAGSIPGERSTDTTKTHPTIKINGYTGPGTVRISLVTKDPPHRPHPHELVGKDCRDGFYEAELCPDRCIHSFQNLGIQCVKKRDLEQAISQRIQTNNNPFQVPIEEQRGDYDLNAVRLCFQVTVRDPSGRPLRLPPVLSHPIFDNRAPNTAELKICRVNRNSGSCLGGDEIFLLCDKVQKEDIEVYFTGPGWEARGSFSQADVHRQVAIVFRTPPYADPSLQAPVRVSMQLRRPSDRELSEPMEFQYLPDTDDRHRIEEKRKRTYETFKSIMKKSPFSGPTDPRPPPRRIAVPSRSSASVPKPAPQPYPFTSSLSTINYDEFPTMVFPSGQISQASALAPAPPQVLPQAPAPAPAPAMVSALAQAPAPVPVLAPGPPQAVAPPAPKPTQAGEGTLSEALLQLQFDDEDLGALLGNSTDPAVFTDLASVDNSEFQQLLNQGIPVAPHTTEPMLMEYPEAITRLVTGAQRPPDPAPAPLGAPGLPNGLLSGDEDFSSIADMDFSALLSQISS

NF-kB p50 homodimer, sequence (P19838 1-433): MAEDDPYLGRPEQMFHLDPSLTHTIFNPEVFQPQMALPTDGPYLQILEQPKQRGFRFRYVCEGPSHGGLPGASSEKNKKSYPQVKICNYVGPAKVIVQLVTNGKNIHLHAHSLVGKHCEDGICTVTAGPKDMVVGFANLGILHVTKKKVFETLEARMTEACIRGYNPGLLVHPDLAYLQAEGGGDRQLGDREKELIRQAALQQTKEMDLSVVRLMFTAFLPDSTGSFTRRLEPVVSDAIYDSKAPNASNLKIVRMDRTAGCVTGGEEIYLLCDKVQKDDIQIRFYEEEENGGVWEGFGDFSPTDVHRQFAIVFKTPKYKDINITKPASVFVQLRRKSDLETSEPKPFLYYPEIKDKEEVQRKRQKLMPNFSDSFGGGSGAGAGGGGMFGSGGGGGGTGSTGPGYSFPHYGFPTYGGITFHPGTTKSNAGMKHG

IgkB 22-mer duplex (NF-kB promoter element)
Kd [1]: 4 nM | Kd [2]: 4 nM
